Experiment: soluble fraction after stress (log2 fold change); higher = more stays soluble; pooled small domains, quantitative proteomics
Conditions: stress: 75 degC
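Also: 20 min heating vs room temperature control held 20 min.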

HMNEISLKEITIEEDHPWRDKKIKELDLKEHILVAMIRRKDQDIIPNGETKIYKDDILVIYD
soluble fraction (log2): 0.00328

HMNEKFNVYPIPVYNNLNITGLSKPVTYLISSIDGKTIKNGVFQESIDVSDLKSGLYFLQVETKDPVKFIK
soluble fraction (log2): -0.991

HMNEKLNEYLNQVKAYLNTSDNKEDIIKELEAVVLEKAEKKYGQITDESISKILSEFGSPAEVAKEYS
soluble fraction (log2): 0.218

HMNEKLRNYIDTLFEHAPTTVRAVELKEEMFQNLTDKYNDLIAQGKSEEAAFNIAVASIGDVDSLIAGLS
soluble fraction (log2): 0.179

HMNELGSLIKRKREELGLSQEELARILGYKHKSSINKIELGLADVPRTKVPAFAKALGMTPVEFS
soluble fraction (log2): -0.12

HMNELPSVIIMKNGRTRPYELQEISKDEEWLNQTIREHGIEPKDIFIAEFWDGRTAFILNDGRIVK
soluble fraction (log2): -0.428

HMNERIKSLRKALGLTQQEFADKLGISRGNIGAYEVGKNAPSDAVISLIVRIFNTNENWLRTGEGEM
soluble fraction (log2): -0.776

HMNETSRTRALNILGLKATATQEDIKKAYRSLAKEYHPDKLVGVSEGVKKISEEKFREINEAYEYLI
soluble fraction (log2): 0.557

HMNEVIIKNWSNAVGRNIKIKTKRGRPIFGRLLAINDQQLTIASKYMRGNATITVAREDVVSMSVS
soluble fraction (log2): -3.08

HMNEVRINTAHIEHKYLGEVKVLDIQEMRNARGRDADPLAFLAIRFWSPRGVLVRVKDSRDATPYWLIS
soluble fraction (log2): 0.199

HMNEYHRNISDEEFVRDIKETAIKLKKETLTGVEYSQNGKYHASTIIHRFGSWKKALELAELNTK
soluble fraction (log2): -0.225

HMNFNYPVIVKNSRINVSGVLSAAKLYTINGQLLQSYKGSGEFTSKTLTKGIYILQVDNARTKVLV
soluble fraction (log2): -4.42

HMNFSKEYILVHSYKEIDILDALIVKYEATLVNREFDLFINSYIKINEDYAKLFRDEIISKTSGSMSIKEL
soluble fraction (log2): -2.93

HMNFTKHPENPNFVVYRFTDPERANSFRAELIANNISFEEDTEKKKQLIYTLFAIHTKYYNQSMQINIK
soluble fraction (log2): -0.843

HMNFTVTDKNAVLYSNDNTKVYESPDINSKLVTTIAKDLPVNVTGITSNGWFRISLEGTYYVPGNGLEQR
soluble fraction (log2): -0.139

HMNGADPYEQLGVTRDASDDELKAAHRKLSRENHPDTLMAKGMPPEFIEQANDKMARINAAWDQIRKERGI
soluble fraction (log2): 0.323

HMNGAITLRVRPSDEGKRLDVFVVSQLTGYTRSFVAGLIGDRHFLVNGQPKKPGYRIKSSDTISGVIPAPA
soluble fraction (log2): -2.1

HMNGARALAGAIAEAIRKQVYRVNERLPAERELASHYDVSRGTLRSALALLEQEGLVTRKVGSGTFVMPP
soluble fraction (log2): -0.761

HMNGNLRAQVLELMGRADYEPLNKSELSRKLDLQGSDRSSLRILMDELERDHSVVRLKKGRFALKVV
soluble fraction (log2): -0.852

HMNGQFIELKNTTGTIIEARVLSFQNGKVKLQRNDGLIFVASISIFDSESIEVIKQKVAEISESKKS
soluble fraction (log2): -1.97

HMNGQITPSRAKEIALGHAGVSEGSANFKKIKLDNKNGRPAYEIEFIANNSRYEFEINASNGSIIKFNK
soluble fraction (log2): -0.321

HMNGYGALVRLGRSRGWVTVEEINDHLPESAVRTAENVQEITEALGRLSIKVFETRPDEDDLLIT
soluble fraction (log2): -0.458

HMNHGDATTETQAEIMAILSDMKPHPITELNTIKRPYEQIDTALTYLINEEKIYRMDGMIFIG
soluble fraction (log2): -1.38

HMNHYTEEYILKRMKDFFTTHAYITRRDIESLFGFRRSYATKWLKHFRESGVLKQSGPVNSAVYLL
soluble fraction (log2): -3.18

HMNIAESIRKYRKASGLTQEEMAKRLGVTTPAVSKWENGITNPDIALLAPIARLFHISVDTLLSYR
soluble fraction (log2): -1.83

HMNIDKLVGSTGTVVRSVTPDTAGLVRVNDEDWRASAEEILYERDAIVVEGIEGVTLIVSKLS
soluble fraction (log2): -0.813

HMNIETHIVPKLLAPIRLQEYGVGIFNNIPTKSALKKALKKQLITVDKTVATTATFIKGGETIELAYQ
soluble fraction (log2): -3.07

HMNIGEKIKTLRENNNISIEELAEKINDSIENILKYENNELEPTLDKKLALSIALGVTLSDLS
soluble fraction (log2): 0.971

HMNIGELINKKRTELGLTLEEVGNAVGVSKSTVKKWEDGFISNMRRDKISKLAKVLEMNPVSLITGE
soluble fraction (log2): 0.00376

HMNIGSKLRYLIEEANITQRQLADALHISPSALNGYINQGKEPDYATLVRIADYFHTSTDYLLGHSNIR
soluble fraction (log2): -0.806

HMNIIATHTVPAIEQKIRLQEYAISIFPQINSRSALKKAIAKKLVLLDGERASTADWIQPGQKIELLEDK
soluble fraction (log2): -1.37

HMNILAPFWERFGLSAFAAGNYDRAEGYFRKLEQKDPNSMSVLRNLGLILMAKGDAEGAEAYLLREEKL
soluble fraction (log2): -0.755

HMNILKKDKRLWDENNLNKPLLFELLENYDKEIFELLLTDKDIKAKFFVQAGESYVFKYDDFRFAIEQN
soluble fraction (log2): -3.32

HMNIMAQDWISSPMGPISFKSNQHGLVKIGWGEVPRENTEQPNLEFTRKWLVDYFEGKASPLPYF
soluble fraction (log2): -0.623

HMNIQGIFGRNLKQKRLEKGMTQEQLAEKAGVSTDTVKRYESGKYDGIRLDMAWYMANALDTPLQALLPP
soluble fraction (log2): 0.598

HMNISALKGKIGEVYLKIPAHNAGKGKVLISLKGTHHELYAITRSGEDISSGEFVKVIEIEDEILVVEK
soluble fraction (log2): -2.05

HMNITFAENIKQFRKAKSMSMEELGKRLGKAKSSISAWENGKRTPKINELKSISEALGVTISQLLGF
soluble fraction (log2): -1.71

HMNIYIEFGRRLAFIRQNSKLSQSQIAQKLNIAQSTYAGYEKGVRKIPLEIIVQLSKILNISPTILILG
soluble fraction (log2): -3.84

HMNKADFLRKLDRELSVLDQEERKEILSFYEERFYTGTNYENKTELDIINELENPEIIAKNVLEEYGV
soluble fraction (log2): -0.253

HMNKDEFLRRLEDALSGEVPASVIRENLNYYADYLSQELGKGRTMDEIIEEIGEPNIVARTIINSAEAA
soluble fraction (log2): 0.184

HMNKDWQDEVALQRYTMITPLLSEDLDNAKRIAMREKIAQDNLTTARSLYRYEKAYRENGFQGLRPTD
soluble fraction (log2): -0.252

HMNKEIEDYVATYSSMKAKEAAAIFDTMTSDLDLVAKILEAMSADDRAKILEQMNEENAARLTKMMD
soluble fraction (log2): 0.0551

HMNKEQIASNIAEARKRSGLNQSELARRLGIRPQSVQQWEKGTATPKLDRLTAIAQVLGVSLESLTG
soluble fraction (log2): -0.0463

HMNKFADLAGNIIYNENGVEVFNFGKYKGQPVAEVFKKDIGYYGWIQNADFPRYTKKVFTAIQLKSK
soluble fraction (log2): -1.28

HMNKIDVVEVDMSKPYEDMTVTELQNVILGKLASNGPVTDQMKKDVAENIYHDSLVNWAKSF
soluble fraction (log2): 0.883

HMNKIENLSQTILNILRKDHSQAFNYKQIAAKLQLDDPSSRNQIVKKLKDLQGKGTIQEIERGKYILTP
soluble fraction (log2): 0.394

HMNKITIDQAKEIALNHAKLTAEQVSFIRTESEFDDGIEKYNIEFYYNNQKYDYDINAVNGQIIQYDLEG
soluble fraction (log2): 0.159

HMNKITIEEAKSIALKHSNLDESQVSFIRSEYDFDNGIEKYEIEFYYNNNKYEYEINAKTGDIISYDYDI
soluble fraction (log2): -1.02

HMNKKAAYKDMAGYFAEMKSKDAADILSRLKDEDIIGIFNEMPRDMVAEMLQKMDRDKATTLTRKML
soluble fraction (log2): 0.444

HMNKKEQYQNIISNFLEKMSEEDRLIFNMHFFKSINISQIARSIDREGYYVKTKIENLLADLKSLMIGNNL
soluble fraction (log2): -2.95

HMNKKETRLNNFIHFLKIRNSITVKEMANHLNVSEMTVRRDIKELTADHTINFENGKIMFNPQSSL
soluble fraction (log2): -1.82

HMNKLIIDAAEDKIFFMIMNNDISYNISHENTKINFEKLIILINDFLSSKKLKINDITGLYV
soluble fraction (log2): 0.123

HMNKNIKIPNISNLSREDAESVLKESGISVSTEIKEVESDTIEKGKVVKTEPSIGSTVKQGRTITIYISSG
soluble fraction (log2): 0.161

HMNKRYKVQVTTDNLKIRKGAGTSYPVVGHITDKGTYTIVETSGKWGKLLSGAGWIYLSYTKK
soluble fraction (log2): -2.13

HMNKTEIISILEKIVLPTQIRNINIFGSEVIIDLNIDNPSLHAKKKLEKSIINSFDKNHKIIINFNVE
soluble fraction (log2): -0.238
